Measurements from patent US20100009390A1, “MUTANT ANTIBODIES WITH HIGH AFFINITY FOR EGFR” (THE REGENTS OF THE UNIVERSITY OF CALIFORNIA, priority 2008, published 2010).
“Also recorded” adds a separate entry of the source. Read-outs that look alike come from different tables or passages of the source.

Key:
[1] = tested on: EGFR-over-expressing MDAMB468 cells; assay: Internalization/uptake of anti-EGFR immunoliposomes (microscopy, flow cytometry); assay type: cell-based, Human
Description: (§1) scFv-mediated internalization of fluorescent immunoliposomes was analyzed and quantified by microscopy and flow cytometry. C10 scFv fragments were inserted into liposomes at ratios of 5, 10, 15, 30 and 60 μg scFv/μmol phospholipid (Mamot et al. (2003) Cancer Res. 63: 3154-3161). scFv densities of 16, 32, 48, 96 and 192 scFv/liposome were calculated on the basis of the molecular mass of scFv (26 kDa) and the approximate number of phospholipid molecules/liposome (80,000). The conjugation technology for scFv to Mal-PEG-DSPE is remarkably reproducible with an efficiency of 77.3(±3.1) % (range 75-82% over six batches) (Nellis et al. (2005) Biotechnol. Prog. 21: 205-220). […] For microscopy studies, 150,000 cells were incubated with 50 μM PL of untargeted and EGFR-targeted ILs labeled with DiIC18(3)-DS in a 12-well plate for 2 h at 37° C., followed by washing with PBS and further incubation at 37° C. for 2 h. The cells were then analyzed by using an inverted fluorescence microscope (Nikon Eclipse, TE300) with a 540/25 nm band-pass filter for excitation and a long-pass filter at 565 nm for emission. For quantitative uptake of immunoliposomes, 250,000 cells were incubated with EGFR-targeted ILs labeled with ADS645 in a six-well plate for 2 h at 37° C., washed with PBS, removed in trypsin solution and fluorescence quantified with a FACSAria instrument (Beckton Dickinson). To determine the effect of EGF competition on internalization of EGFR-targeted ILs, IL internalization was quantified as described above, except that 50 μM targeted ILs and cells were incubated with EGF concentrations ranging from 0.2-25 nM. ANOVA (analysis of variance) was used to analyze the statistical differences of the quantified uptake.

[2] = tested on: MDAMB453 cells; assay: Binding specificity of scFv by flow cytometry; settings: MDAMB453, only 10^4 EGFR/cell
[3] = target: T1, A431 cells (Homo sapiens, UniProt P00533); assay: Binding specificity of scFv by flow cytometry; settings: A431, 1×10^6-3×10^6 EGFR/cell
T1 construct: endogenous in cells; host or cells: A431 cells

[4] = target: T2, MDAMB468 cells expressing EGFR (Homo sapiens, UniProt P00533); assay: Immunoliposome binding affinity for cells expressing EGFR (flow cytometry); settings: read-out: Apparent KD of immunoliposomes
T2 construct: Human breast cancer MDAMB468 cells expressing EGFR; endogenous in cells; host or cells: MDAMB468 breast carcinoma cells
Description: Human breast cancer MDAMB468 cells expressing EGFR were grown to 80-90% confluence in L15 medium supplemented with 10% FBS and harvested by trypsinization. ILs labeled with DiIC18(3)-DS were incubated overnight with 10^4 cells at concentrations of IL ranging from 0.31-2.5 nM. The concentration of IL was converted from the concentration of phospholipid on the basis of the approximate number of phospholipid molecules per liposome (80,000). Cell binding was performed at 4° C. in FACS buffer in adequate volume to ensure a fivefold excess of ILs and that the reaction had come to equilibrium. After two washes with 200 μl of FACS buffer, the amount of cell-bound ILs was quantified by flow cytometry in a FACS LSRII (Becton Dickinson). Data analysis was the same as for the measurement of scFv KD.

[5] = tested on: MDAMB231 cells; assay: Uptake of EGFR immunoliposomes into cells of lower EGFR density; assay type: cell-based, human; settings: all scFv densities studied; 480,000 EGFR/cell
Description: as §1
To determine the impact of receptor density on IL uptake, we measured the uptake of the different ILs into MDAMB231 cells which express 480,000 EGFR/cell as determined by flow cytometry using Quantum Simply Cellular anti-Human IgG beads (Bangs Laboratories Inc.). […] Uptake into MDAMB231 cells increased with increasing scFv density, reaching a plateau at an IL scFv density of 74 scFv/IL for P2/4 scFv and at 37 scFv/IL for 2224 scFv (FIG. 6C).

[6] = tested on: parental NR6 cells; assay: Binding specificity of scFv by flow cytometry; settings: NR6, EGFR negative
Description: (§2) The binding of C10 scFv and C10 mutants to EGFR (vIII) stably transfected NR6M cells and parental NR6 cells was also measured.

[7] = target: T3, EGFR (vIII) stably transfected NR6M cells (Homo sapiens, UniProt P00533, DELINS30-297G); assay: Binding specificity of scFv by flow cytometry
T3 construct: expressed in transfected cells; host or cells: NR6M cells (NR6 stably transfected with EGFR (vIII)), gift of Dr Daryl D Bigner
Description: as §2

[8] = tested on: MDAMB468 cells; assay: Binding specificity of scFv by flow cytometry; set-up: species or system Human; settings: MDAMB468, 1×10^6-3×10^6 EGFR/cell
[9] = target: T4, EGFR-expressing A431 cells (Homo sapiens, UniProt P00533); settings: Heitner et al. (2001); read-out: KD of C10 scFv previously measured on EGFR-expressing tumor cells; cited from earlier work
T4 construct: host or cells: A431 cells

[10] = target: T5, biotinylated EGFR-ECD (Homo sapiens, UniProt P00533); assay: Yeast-displayed scFv affinity for biotinylated EGFR-ECD by flow cytometry; assay type: binding; settings: concentrations as high as 8 μM
T5 construct: Recombinant EGFR-ECD was expressed in HEK293 cells; biotin (chemical label, NHS-sulfo-LC-biotin on amines); made in house; host or cells: HEK293 cells
Description: Generally, six to eight different concentrations of biotinylated EGFR were used to span a range of concentrations from ten times above to ten times below the KD. Incubation volumes, times and yeast numbers were chosen to ensure that the studies were done in at least fivefold antigen excess and that equilibrium had been achieved (Razai et al. (2005) J. Mol. Biol. 351: 158-169). For anti-EGFR scFv, […] in 50 μl were incubated with biotinylated EGFR-ECD for 1 h at room temperature. […] Only yeast displaying scFv (as determined by binding of SV5 mAb) were gated for affinity measurements.

B1: C10: parental (wild-type) internalizing anti-EGFR human scFv from a non-immune phage antibody library; SEQ ID NO:1 (protein)
scFv: EVQLVQSGAEVKKPGSSVKVSCKASGGTFSSYAISWVRQAPGQGLEWMGGIIPIFGTANYAQKFQGRVTITADESTSTAYMELSSLRSEDTAVYYCAREEGPYCSSTSCYGAFDIWGQGTLVTVSS
modifications: Variable chain of single chain antibody.
- endocytosis of ILs by fluorescence microscopy ([1]; 74 scFv/liposome, MDAMB468): endocytosed efficiently
- IL uptake compared to ILs from higher affinity scFv ([1]; scFv densities of 74 scFv/liposome or less): less uptake
- scFv binding/staining of cells [2]: did not stain
- scFv binding/staining of cells [3]: stained
- Kd ([4]; 74 scFv/liposome): 1.75 nM
- Kd ([4]; 148 scFv/liposome): 0.36 nM
- IL uptake into MDAMB231 cells compared to A431 cells [5]: significantly less uptake
- scFv binding/staining of cells [6]: minimal binding; also recorded: did not stain
- scFv binding/staining of cells [7]: strong staining; also recorded: stained
- scFv binding/staining of cells [8]: stained
- Kd [9]: 217 nM
- binding of yeast-displayed scFv to biotinylated recombinant EGFR [10]: minimal binding
